# Like-named read-outs stand apart in the source and are kept apart here.
# Legend:
# Assay in all cases: EMSA
# [1] = target: T1, RPA-wt (RPA70/RPA32/RPA14 heterotrimer) (human, UniProt P27694;P15927;P35244 1-616;1-270;1-121)
# [2] = target: T1, RPA-wt (RPA70/RPA32/RPA14 heterotrimer); remark: listed apart in the source
# [3] = target: T2, WRN-E84A (exonuclease-deficient) (human, UniProt Q14191 1-1432, E84A)
# [4] = target: T1, RPA-wt (RPA70/RPA32/RPA14 heterotrimer); remark: listed apart in the source
# [5] = target: T2, WRN-E84A (exonuclease-deficient); remark: listed apart in the source
# T1 sequence (P27694 whole entry, chain 1 of 3): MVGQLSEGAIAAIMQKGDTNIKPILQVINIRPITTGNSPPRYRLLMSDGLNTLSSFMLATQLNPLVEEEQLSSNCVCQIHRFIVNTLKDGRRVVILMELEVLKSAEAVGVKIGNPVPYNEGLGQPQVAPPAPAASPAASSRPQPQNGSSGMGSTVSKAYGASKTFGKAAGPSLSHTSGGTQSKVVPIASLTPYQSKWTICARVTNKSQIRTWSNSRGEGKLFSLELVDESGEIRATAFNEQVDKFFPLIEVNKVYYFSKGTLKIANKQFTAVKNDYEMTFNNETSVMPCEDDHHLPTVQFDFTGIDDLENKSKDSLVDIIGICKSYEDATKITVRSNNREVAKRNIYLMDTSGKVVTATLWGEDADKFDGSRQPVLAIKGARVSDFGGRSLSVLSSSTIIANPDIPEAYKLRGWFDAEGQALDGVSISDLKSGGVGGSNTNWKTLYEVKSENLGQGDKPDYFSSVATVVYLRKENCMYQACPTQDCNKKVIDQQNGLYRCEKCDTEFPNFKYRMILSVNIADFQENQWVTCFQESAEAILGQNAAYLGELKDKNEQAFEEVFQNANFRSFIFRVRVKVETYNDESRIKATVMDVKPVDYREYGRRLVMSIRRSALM
# T1 sequence (P15927 whole entry, chain 2 of 3): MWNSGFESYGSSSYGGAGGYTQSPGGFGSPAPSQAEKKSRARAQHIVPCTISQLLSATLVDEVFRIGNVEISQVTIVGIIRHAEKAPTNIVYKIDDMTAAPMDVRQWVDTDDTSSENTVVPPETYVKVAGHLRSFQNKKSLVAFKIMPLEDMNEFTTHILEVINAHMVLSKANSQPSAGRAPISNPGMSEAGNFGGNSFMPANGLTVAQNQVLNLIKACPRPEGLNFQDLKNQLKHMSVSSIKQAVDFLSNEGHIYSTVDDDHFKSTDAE
# T1 sequence (P35244 whole entry, chain 3 of 3): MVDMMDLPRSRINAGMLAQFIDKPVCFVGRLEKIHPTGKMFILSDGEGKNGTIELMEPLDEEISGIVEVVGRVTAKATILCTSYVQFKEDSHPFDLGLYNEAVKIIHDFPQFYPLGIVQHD
# T2 sequence (Q14191 whole entry E84A): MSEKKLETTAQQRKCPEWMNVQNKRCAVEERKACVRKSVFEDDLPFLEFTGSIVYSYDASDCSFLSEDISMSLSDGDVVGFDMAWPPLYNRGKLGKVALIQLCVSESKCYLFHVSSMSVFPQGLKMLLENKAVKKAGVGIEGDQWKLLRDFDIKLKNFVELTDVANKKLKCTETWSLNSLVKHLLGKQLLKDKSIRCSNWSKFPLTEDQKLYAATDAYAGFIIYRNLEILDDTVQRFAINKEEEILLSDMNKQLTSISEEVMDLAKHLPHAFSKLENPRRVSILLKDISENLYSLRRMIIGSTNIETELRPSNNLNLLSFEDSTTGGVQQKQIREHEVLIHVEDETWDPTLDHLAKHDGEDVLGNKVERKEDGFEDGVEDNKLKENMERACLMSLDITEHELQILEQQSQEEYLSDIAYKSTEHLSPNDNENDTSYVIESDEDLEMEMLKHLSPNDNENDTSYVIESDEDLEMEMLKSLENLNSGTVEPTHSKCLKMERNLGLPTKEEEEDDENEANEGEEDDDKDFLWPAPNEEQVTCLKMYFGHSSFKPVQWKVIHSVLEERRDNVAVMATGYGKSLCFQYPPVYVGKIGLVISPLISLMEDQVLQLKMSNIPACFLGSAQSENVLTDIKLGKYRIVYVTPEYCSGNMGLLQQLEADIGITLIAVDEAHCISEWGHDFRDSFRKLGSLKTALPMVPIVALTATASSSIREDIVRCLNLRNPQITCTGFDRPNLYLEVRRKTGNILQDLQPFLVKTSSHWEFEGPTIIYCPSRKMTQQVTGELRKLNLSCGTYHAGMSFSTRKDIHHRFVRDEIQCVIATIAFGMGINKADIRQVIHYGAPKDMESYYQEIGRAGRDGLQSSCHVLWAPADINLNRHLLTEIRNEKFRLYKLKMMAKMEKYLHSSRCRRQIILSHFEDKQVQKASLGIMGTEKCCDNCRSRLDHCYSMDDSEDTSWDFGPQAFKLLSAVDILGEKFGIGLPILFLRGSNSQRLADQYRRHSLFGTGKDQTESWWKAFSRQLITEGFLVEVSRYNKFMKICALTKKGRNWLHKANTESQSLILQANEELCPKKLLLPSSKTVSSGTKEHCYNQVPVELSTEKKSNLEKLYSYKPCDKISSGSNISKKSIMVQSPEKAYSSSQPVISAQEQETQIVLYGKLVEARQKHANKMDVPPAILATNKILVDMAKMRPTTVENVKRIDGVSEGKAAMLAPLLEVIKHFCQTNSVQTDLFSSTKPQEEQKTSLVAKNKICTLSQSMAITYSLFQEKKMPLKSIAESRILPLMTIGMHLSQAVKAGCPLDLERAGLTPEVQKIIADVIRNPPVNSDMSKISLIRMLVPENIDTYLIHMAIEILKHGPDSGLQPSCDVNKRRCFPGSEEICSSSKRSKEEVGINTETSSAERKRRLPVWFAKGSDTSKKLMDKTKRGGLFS
binder,measurement,setting,value
TAAGTGAGTGTGAGGATACATGTAGGCAATTG (ssDNA) [ss32],binding result,[1],binds
"model replication fork, 32-nt leading gap (mixed) DNA 1: CGTGACTTGATGTTAACCCTAACCCTAAGATATCGCGTTAAGTGAGTGTGAGGATACATGTAGGCAATTGCCACGTGTCTATCAGCTGAAGTTGTTCGCGACGTGCGATCGTCGCTGCGACG DNA 2: CGTCGCAGCGACGATCGCACGTCGCGAACAACTTCAGCTGATAGACACGTGGCAATTGCCTACATGTATCCTCACACTCTGAATACGCGATATCTTAGGGTTAGGGTTAACATCAAGTCACG DNA 3: CGTCGCAGCGACGATCGCACGTCGCGAACAACTTCAGCTGATAGACACGTGG DNA 4: TCAGAGTGTGAGGATACATGTAGGCAATTGCCACGTGTCTATCAGCTGAAGTTGTTCGCGACGTGCGATCGTCGCTGCGACG",binding result,[2],binds
same,binding result,[3],binds
"gapped duplex, 32-nt gap (mixed) DNA 1: CGTGACTTGATGTTAACCCTAACCCTAAGATATCGCGTTAAGTGAGTGTGAGGATACATGTAGGCAATTGCCACGTGTCTATCAGCTGAAGTTGTTCGCGACGTGCGATCGTCGCTGCGACG DNA 2: CGTCGCAGCGACGATCGCACGTCGCGAACAACTTCAGCTGATAGACACGTGG DNA 3: ACGCGATATCTTAGGGTTAGGGTTAACATCAAGTCACG",binding result,[4],binds
same,binding result,[5],binds
